# Measured values as given in patent US20260258142A1 (published 2026).
# B1: phosphorylated HisTAG-ΔPDGFRAaa1-528 (receptor)
# chain: QLSLPSILPNENEKVVQLNSSFSLRCFGESEVSWQYPMSEEESSDVEIRNEENNSGLFVTVLEVSSASAAHTGLYTCYYNHTQTEENELEGRHIYIYVPDPDVAFVPLGMTDYLVIVEDDDSAIIPCRTTDPETPVTLHNSEGVVPASYDSRQGFNGTFTVGPYICEATVKGKKFQTIPFNVYALKATSELDLEMEALKTVYKSGETIVVTCAVFNNEVVDLQWTYPGEVKGKGITMLEEIKVPSIKLVYTLTVPEATVKDSGDYECAARQATREVKEMKKVTISVHEKGFIEIKPTFSQLEAVNLHEVKHFVVEVRAYPPPRISWLKNNLTLIENLTEITTDVEKIQEIRYRSKLKLIRAKEEDSGHYTIVAQNEDAVKSYTFELLTQVPSSILDLVDDHHGSTGGQTVRCTAEGTPLPDIEWMICKDIKKCNNETSWTILANNVSNIITEIHSRDRSTVEGRVTFAKVEETIAVRCLAKNLLGAENRELKLVAPTLRSELTVA
# modifications: tyrosine-phosphorylated (ectopically, by MAN2A1-FER in HUH7 cells); sites recognised by the antibodies: pY118/pY120, pY342, pY375, pY391
# Molecular target: Rabbit polyclonal Ab
# Assay: ELISA
binder,measurement,value
B1,Kd,18.6 nM
